Experimental data from publication PMC8684756.

Columns and labels:
Int^C-mCitrine-hFis1 = assay: protein trans-splicing
Int^C-mCitrine-Tom7 = assay: protein trans-splicing

Tom20-mCherry-Int^N
percent of Tom20-FP1 spliced to the partner (Int^C-mCitrine-hFis1): 50% | percent of Tom20-FP1 spliced to the partner (Int^C-mCitrine-Tom7): 30%
